Test results as given in PMC8820655 (bioRxiv, 2022).

Assays:
[1] = biological target: His-tagged RBD protein of SARS-CoV-2 (SARS-CoV-2, wild type (Wuhan-Hu-1 …, UniProt P0DTC2)); test: BLI
[2] = biological target: Fc-tagged wild-type RBD (SARS-CoV-2, UniProt P0DTC2); test: BLI

Row | Binder | fold change of the avidity KD, RBD loaded at 1000 ng/ml against 40 ng/ml [1] | IC50 [2]
1 | CoV2–06 (antibody, V domains shown) VH: QVELQESGPGLVKPSGTLSLTCAVSGGSISSNNWWTWVRQPPGKGLEWIGEIHHSGGTNYNPSLKSRVTMSVDKSKNQFSLNLYSVTAADTAVYYCTRDRAGGTYSGFDFWGQGTLVTVSS VL: QAVVTQPASVSGSPGQSITISCTGTSSDVGGYNYVSWYQQHPGKAPKLMIYDVSNRPSGVSNRFSGSKSGNTASLTISGLQAEDEADYYCSSYTSSSTVVFGGGTKVTVL | 46 fold | 39.8 nM
2 | CoV2–14 (antibody, V domains shown) VH: EVQLQQSGPGLVKPSQTLSLTCAISGDSVSSNSAAWNWIRQSPSRGLEWLGRTYYRSKWYNDYAVSVKSRITINPDTSKNQFSLQLNSVTPEDTAVYYCAREEQQLVHDYYYYGMDVWGQGTMVTVSS VL: QAVVTQPASVSGSPGQSITISCTGTSSDIGAYNYISWYQQHPGKAPKLIIYEVSNRPSGISYRFSGSKSGNTASLTISGLQAEDEANYYCSSYAGSISFGGGTKVTVL | 2 fold | 10.6 nM
